This is an account of results in US7595158B2, “Bcl2L12 polypeptide activators and inhibitors” (Dana-Farber Cancer Institute, Inc., priority 2003, dated 2009).

One assay deals with cytochrome c release. Briefly: Cytochrome c release in STS-treated astrocytes. It counts as cell-based. As for the experimental part:
To determine whether Bcl2L12 polypeptides inhibit the apoptogenic activity of mitochondria, cytochrome c release in STS-treated astrocytes over-expressing Bcl2L12-V5 polypeptides was assessed and compared to astrocytes transfected with a LacZ control vector. An anti-tubulin immunoblot was performed as a loading control. Suboptimal concentrations of digitonin were used to allow for selective permeabilization of the plasma membrane, but not of the intracellular membranes. […] This is consistent with the inability of Bcl2L12-V5 polypeptides to localize to mitochondria.

The target of the next assay is T1, Apaf-1 polypeptide (Homo sapiens, UniProt O14727).
T1 construct: endogenous in cells; host or cells: 293T
T1 sequence (O14727 1-1248): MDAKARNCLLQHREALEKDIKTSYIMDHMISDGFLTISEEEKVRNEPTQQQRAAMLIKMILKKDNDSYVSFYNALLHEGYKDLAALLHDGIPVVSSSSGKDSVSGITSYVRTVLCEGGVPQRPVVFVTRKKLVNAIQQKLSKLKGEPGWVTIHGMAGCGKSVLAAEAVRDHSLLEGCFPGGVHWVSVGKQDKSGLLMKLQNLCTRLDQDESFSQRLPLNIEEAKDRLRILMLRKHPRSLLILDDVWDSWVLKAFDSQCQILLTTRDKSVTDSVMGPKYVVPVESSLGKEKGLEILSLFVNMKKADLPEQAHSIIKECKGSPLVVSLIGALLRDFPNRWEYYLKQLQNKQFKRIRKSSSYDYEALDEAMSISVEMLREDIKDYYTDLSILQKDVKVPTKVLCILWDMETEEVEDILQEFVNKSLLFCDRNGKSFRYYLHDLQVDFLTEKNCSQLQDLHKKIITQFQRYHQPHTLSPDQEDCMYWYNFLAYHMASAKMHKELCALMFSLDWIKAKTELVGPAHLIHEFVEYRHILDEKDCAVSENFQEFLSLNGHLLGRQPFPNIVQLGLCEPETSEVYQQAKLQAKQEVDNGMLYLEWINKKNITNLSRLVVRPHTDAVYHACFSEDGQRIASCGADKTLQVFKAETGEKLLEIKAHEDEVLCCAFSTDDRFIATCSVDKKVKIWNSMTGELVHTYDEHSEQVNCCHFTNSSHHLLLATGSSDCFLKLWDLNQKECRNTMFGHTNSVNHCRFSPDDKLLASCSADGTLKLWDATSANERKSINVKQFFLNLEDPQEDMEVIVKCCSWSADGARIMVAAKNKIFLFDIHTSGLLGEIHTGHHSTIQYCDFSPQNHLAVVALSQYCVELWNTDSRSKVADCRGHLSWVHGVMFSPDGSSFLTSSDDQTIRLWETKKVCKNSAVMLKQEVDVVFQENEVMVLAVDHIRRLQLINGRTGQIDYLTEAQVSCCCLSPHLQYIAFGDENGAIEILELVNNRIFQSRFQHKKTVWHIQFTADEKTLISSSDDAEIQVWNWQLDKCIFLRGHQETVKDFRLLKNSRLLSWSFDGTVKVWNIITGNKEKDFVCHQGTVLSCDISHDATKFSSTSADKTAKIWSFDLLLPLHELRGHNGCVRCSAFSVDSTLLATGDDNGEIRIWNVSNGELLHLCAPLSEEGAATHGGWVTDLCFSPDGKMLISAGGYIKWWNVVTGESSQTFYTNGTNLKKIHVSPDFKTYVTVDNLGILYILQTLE
Briefly: Co-immunoprecipitation of endogenous Apaf-1 in 293T cells. It counts as binding. The settings on record: anti-V5 immunoprecipitation from 293T cells. As for the experimental part:
To confirm this interaction, 293T cells were used to test the physical interaction between Apaf-1 and Bcl2L12 polypeptides in vivo. […] To test the association between Apaf-1 and Bcl2L12 polypeptides in vivo, Bcl2L12-V5 polypeptides were expressed in 293T cells and immunoprecipitated with an anti-V5 antibody. The amount of co-immunoprecipitated endogenous Apaf-1 polypeptide then was determined by Western blot analysis.
To assess whether the BH2 domain is necessary for Apaf-1 binding, Bcl2L12-V5-ΔBH2 polypeptides were immunoprecipitated from 293T cells, and co-immunoprecipitated Apaf-1 was quantified as described.

B1: Bcl2L12-V5-ΔBH2: V5 tagged mutant lacking amino acid residues 311-334 (BH2 domain) of human Bcl2L12; sequence 1-310 (protein)
chain: MGRPAGLFPPLCPFLGFRPEACWERHMQIERAPSVPPFLRWAGYRPGPVRRRGKVELIKFVRVQWRRPQVEWRRRRWGPGPGASMAGSEELGLREDTLRVLAAFLRRGEAAGSPVPTPPRSPAQEEPTDFLSRLRRCLPCSLGRGAAPSESPRPCSLPIRPCYGLEPGPATPDFYALVAQRLEQLVQEQLKSPPSPELQGPPSTEKEAILRRLVALLEEEAEVINQKLASDPALRSKLVRLSSDSFARLVELFCSRDDSSRPSRACPGPPPPSPEPLARLALAMELSRRVAGLGGTLAGLSVEHVHSFTP
modifications: left off: small tags and cut ends
For the molecule B1, in the assay on cytochrome c release, the cytochrome c release result is given as “exhibited cytochrome c release”. In the assay with Apaf-1 polypeptide, the “association with Apaf-1 polypeptide” value is “bound comparable levels of Apaf-1 polypeptide”.

B2: Bcl2L12-V5: Bcl2L12 polypeptide having the V5 epitope tag, ectopically expressed from pBabe-Bcl2L12-V5 vector; human amino acid sequence 1-334 (protein)
chain: MGRPAGLFPPLCPFLGFRPEACWERHMQIERAPSVPPFLRWAGYRPGPVRRRGKVELIKFVRVQWRRPQVEWRRRRWGPGPGASMAGSEELGLREDTLRVLAAFLRRGEAAGSPVPTPPRSPAQEEPTDFLSRLRRCLPCSLGRGAAPSESPRPCSLPIRPCYGLEPGPATPDFYALVAQRLEQLVQEQLKSPPSPELQGPPSTEKEAILRRLVALLEEEAEVINQKLASDPALRSKLVRLSSDSFARLVELFCSRDDSSRPSRACPGPPPPSPEPLARLALAMELSRRVAGLGGTLAGLSVEHVHSFTPWIQAHGGWEGILAVSPVDLNLPLD
modifications: left off: small tags and cut ends
Regarding B2, in the assay with cytochrome c release, the cytochrome c release result is on record as “did not block cytochrome c release”. The “association with Apaf-1 polypeptide” value with Apaf-1 polypeptide is reported as “found to be associated”.
